In experiment [1] the target is Human CD3ε/δ (human) (UniProt P07766). Put plainly: kinetic binding analysis, method not given.
Experiment [2] deals with Cynomolgus CD3ε/δ (cynomolgus monkey) (UniProt Q95LI5). Put plainly: kinetic binding analysis, method not given.
Cynomolgus CD3ε/δ (cynomolgus monkey), sequence (Q95LI5 22-117, stated change not applied, chain 1 of 2): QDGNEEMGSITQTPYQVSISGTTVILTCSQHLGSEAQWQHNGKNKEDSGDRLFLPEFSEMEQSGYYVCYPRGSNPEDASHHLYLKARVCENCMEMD
Cynomolgus CD3ε/δ (cynomolgus monkey), sequence (Q95LI8 22-105, stated change not applied, chain 2 of 2, further chain): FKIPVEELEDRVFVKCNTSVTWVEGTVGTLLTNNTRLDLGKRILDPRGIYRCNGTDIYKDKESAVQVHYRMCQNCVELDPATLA

Human CD3ε/δ (human), sequence (P07766 23-126, stated change not applied, chain 1 of 2): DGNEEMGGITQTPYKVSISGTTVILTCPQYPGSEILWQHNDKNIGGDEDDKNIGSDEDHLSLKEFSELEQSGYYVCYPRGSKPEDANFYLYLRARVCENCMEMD
Human CD3ε/δ (human), sequence (P04234 22-105, stated change not applied, chain 2 of 2, further chain): as the sequence (Q95LI8 22-105, stated change not applied, chain 2 of 2, further chain) above, with V5I, K15N, V20I, T32S, N33D, N34I, A64T, N74S, L83V counted along it

B1: DART-A, sequence-optimized CD123×CD3 bi-specific monovalent diabody (bispecific antibody)
chain 1: QAVVTQEPSLTVSPGGTVTLTCRSSTGAVTTSNYANWVQQKPGQAPRGLIGGTNKRAPWTPARFSGSLLGGKAALTITGAQAEDEADYYCALWYSNLWVFGGGTKLTVLGGGGSGGGGEVQLVQSGAELKKPGASVKVSCKASGYTFTDYYMKWVRQAPGQGLEWIGDIIPSNGATFYNQKFKGRVTITVDKSTSTAYMELSSLRSEDTAVYYCARSHLLRASWFAYWGQGTLVTVSSGGCGGGEVAALEKEVAALEKEVAALEKEVAALEK
chain 2: DFVMTQSPDSLAVSLGERVTMSCKSSQSLLNSGNQKNYLTWYQQKPGQPPKLLIYWASTRESGVPDRFSGSGSGTDFTLTISSLQAEDVAVYYCQNDYSYPYTFGQGTKLEIKGGGSGGGGEVQLVESGGGLVQPGGSLRLSCAASGFTFSTYAMNWVRQAPGKGLEWVGRIRSKYNNYATYYADSVKDRFTISRDDSKNSLYLQMNSLKTEDTAVYYCVRHGNFGNSYVSWFAYWGQGTLVTVSSGGCGGGKVAALKEKVAALKEKVAALKEKVAALKE
Usually Kd stands for the constant that tells how readily two partners part at equilibrium. High values mean lower affinity, low ones higher affinity. Broadly, the koff is a measure of how fast the partners let go of each other. A high value points to fast dissociation. A word on the kon: it is the rate constant with which the complex forms. For B1, in experiment [1], the equilibrium dissociation constant (Kd) amounted to 9 nM, the koff was determined as 0.005 s⁻¹ and the on-rate constant (kon) came out at 570000 M⁻¹ s⁻¹. In experiment [2], the equilibrium dissociation constant (Kd) worked out at 9.2 nM, the koff was determined as 0.005 s⁻¹ and the kon was determined as 550000 M⁻¹ s⁻¹.
